Laboratory results published in patent publication US9260500B2, “Peptide and use thereof” (Takeda Pharmaceutical Company Limited, priority 2009, dated 2016).
Non-standard residues stand in square brackets, D forms with d. 4Pal = N[C@@H](Cc1ccncc1)C(=O)O; dHyp = O=C(O)[C@H]1C[C@H](O)CN1; Cha = N[C@@H](CC1CCCCC1)C(=O)O; d(αMeP) = C[C@]1(C(=O)O)CCCN1; dPip = O=C(O)[C@H]1CCCCN1; hSer = N[C@@H](CCO)C(=O)O; Nle = CCCC[C@H](N)C(=O)O; Aib = CC(C)(N)C(=O)O; GABA = NCCCC(=O)O; βAla = NCCC(=O)O

Columns and labels:
human Y2 receptor [1] = target: T1, human Y2 receptor (Homo sapiens, UniProt P49146); experiment: Human Y2 Receptor G Protein Binding Assay (GBA), [35S]GTPγS; assay type: biochemical; conditions: EC50 of test compound/EC50 of PYY(3-36) (PYY3-36 taken as 1), hY2R/CHO membrane fraction
T1 construct: expressed in transfected cells; membrane fraction
T1 sequence (P49146 1-381): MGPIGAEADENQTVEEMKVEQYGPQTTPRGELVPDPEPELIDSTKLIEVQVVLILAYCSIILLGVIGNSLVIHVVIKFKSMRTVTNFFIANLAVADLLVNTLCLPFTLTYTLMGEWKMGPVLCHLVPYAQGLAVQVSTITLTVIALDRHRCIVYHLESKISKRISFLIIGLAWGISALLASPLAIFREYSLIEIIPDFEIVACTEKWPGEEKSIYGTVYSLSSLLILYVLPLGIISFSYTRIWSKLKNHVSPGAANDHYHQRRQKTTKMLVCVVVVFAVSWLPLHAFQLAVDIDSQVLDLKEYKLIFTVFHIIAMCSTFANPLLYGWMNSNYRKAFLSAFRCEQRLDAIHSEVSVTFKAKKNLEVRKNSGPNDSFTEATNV
Method in brief: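 Agonism measured as [35S]GTPγS binding, read by GF/C filtration and scintillation counting after 120 min at room temperature, using human Y2 membranes at 1 μg protein/mL in pH 7.4 Tris/MgCl2/NaCl/GDP buffer. Compound serially diluted 100 μM–1 nM; EC50 normalized to PYY(3-36) (ratio = compound/PYY).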

human Y2 receptor [2] = target: T1, human Y2 receptor; experiment: Receptor Binding Assay (RBA) for Human Y2, [125I]-PYY displacement on hY2R/CHO membrane fraction; conditions: IC50 of test compound/IC50 of PYY(3-36) (PYY(3-36) taken as 1)
Method in brief: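 Read-out is [125I]-PYY displacement from membranes of CHO/dhfr− cells stably transfected with human Y2R. Membranes were obtained by disrupting cells in a buffer of 10 mM NaHCO3, 5 mM EDTA and protease inhibitors.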

Row | GBA EC50 Ratio (human Y2 receptor [1]) | RBA IC50 Ratio (human Y2 receptor [2]) | Substance
1 | 2.6 | 4.5 | Ac-[D-αMePro24, Cha27,28,36, Aib31]-PYY(23-36) (Ac-S[d(αMeP)]RH[Cha][Cha]NL[Aib]TRQR[Cha]-NH2; SMILES CC(=O)N[C@@H](CO)C(=O)N1CCC[C@]1(C)C(=O)N[C@@H](CCCNC(=N)N)C(=O)N[C@@H](Cc1c[nH]cn1)C(=O)N[C@@H](CC1CCCCC1)C(=O)N[C@@H](CC1CCCCC1)C(=O)N[C@@H](CC(N)=O)C(=O)N[C@@H](CC(C)C)C(=O)NC(C)(C)C(=O)N[C@H](C(=O)N[C@@H](CCCNC(=N)N)C(=O)N[C@@H](CCC(N)=O)C(=O)N[C@@H](CCCNC(=N)N)C(=O)N[C@@H](CC1CCCCC1)C(N)=O)[C@@H](C)O) [compound No. 155]
2 | 1.6 | 1.2 | Ac-[Dap22, D-Pro24, Pya(4)26, Cha27,36, Aib28,31, Lys30]-PYY(22-36) [compound No. 273]
3 | 3.0 | 5.8 | Ac-[GABA24, Cha27,28,36, Aib31]-PYY(23-36) (Ac-S[GABA]RH[Cha][Cha]NL[Aib]TRQR[Cha]-NH2; SMILES CC(=O)N[C@@H](CO)C(=O)NCCCC(=O)N[C@@H](CCCNC(=N)N)C(=O)N[C@@H](Cc1c[nH]cn1)C(=O)N[C@@H](CC1CCCCC1)C(=O)N[C@@H](CC1CCCCC1)C(=O)N[C@@H](CC(N)=O)C(=O)N[C@@H](CC(C)C)C(=O)NC(C)(C)C(=O)N[C@H](C(=O)N[C@@H](CCCNC(=N)N)C(=O)N[C@@H](CCC(N)=O)C(=O)N[C@@H](CCCNC(=N)N)C(=O)N[C@@H](CC1CCCCC1)C(N)=O)[C@@H](C)O) [compound No. 156]
4 | 0.9 | 1.3 | Ac-[Gln23, D-Pro24, Pya(4)26, Cha27,36, Aib28,31, Lys30]-PYY(23-36) (Ac-Q[dP]R[4Pal][Cha][Aib]NK[Aib]TRQR[Cha]-NH2; SMILES CC(=O)N[C@@H](CCC(N)=O)C(=O)N1CCC[C@@H]1C(=O)N[C@@H](CCCNC(=N)N)C(=O)N[C@@H](Cc1ccncc1)C(=O)N[C@@H](CC1CCCCC1)C(=O)NC(C)(C)C(=O)N[C@@H](CC(N)=O)C(=O)N[C@@H](CCCCN)C(=O)NC(C)(C)C(=O)N[C@H](C(=O)N[C@@H](CCCNC(=N)N)C(=O)N[C@@H](CCC(N)=O)C(=O)N[C@@H](CCCNC(=N)N)C(=O)N[C@@H](CC1CCCCC1)C(N)=O)[C@@H](C)O) [compound No. 210]
5 | 2.2 | 3.4 | Ac-[Glu23, D-Hyp24, Pya(4)26, Cha27,36, Aib28,31, Lys30]-PYY(23-36) (Ac-E[dHyp]R[4Pal][Cha][Aib]NK[Aib]TRQR[Cha]-NH2; SMILES CC(=O)N[C@@H](CCC(=O)O)C(=O)N1C[C@@H](O)C[C@@H]1C(=O)N[C@@H](CCCNC(=N)N)C(=O)N[C@@H](Cc1ccncc1)C(=O)N[C@@H](CC1CCCCC1)C(=O)NC(C)(C)C(=O)N[C@@H](CC(N)=O)C(=O)N[C@@H](CCCCN)C(=O)NC(C)(C)C(=O)N[C@H](C(=O)N[C@@H](CCCNC(=N)N)C(=O)N[C@@H](CCC(N)=O)C(=O)N[C@@H](CCCNC(=N)N)C(=O)N[C@@H](CC1CCCCC1)C(N)=O)[C@@H](C)O) [compound No. 208]
6 | 10 | 17 | Ac-[Glu23, D-Pic(2)24, Cha27,28,36, Aib31]-PYY(23-36) (Ac-E[dPip]RH[Cha][Cha]NL[Aib]TRQR[Cha]-NH2; SMILES CC(=O)N[C@@H](CCC(=O)O)C(=O)N1CCCC[C@@H]1C(=O)N[C@@H](CCCNC(=N)N)C(=O)N[C@@H](Cc1c[nH]cn1)C(=O)N[C@@H](CC1CCCCC1)C(=O)N[C@@H](CC1CCCCC1)C(=O)N[C@@H](CC(N)=O)C(=O)N[C@@H](CC(C)C)C(=O)NC(C)(C)C(=O)N[C@H](C(=O)N[C@@H](CCCNC(=N)N)C(=O)N[C@@H](CCC(N)=O)C(=O)N[C@@H](CCCNC(=N)N)C(=O)N[C@@H](CC1CCCCC1)C(N)=O)[C@@H](C)O) [compound No. 120]
7 | 1.3 | 2.3 | Ac-[Glu23, D-Pro24, Nle25, Pya(4)26, Cha27,28,36, Lys30, Aib31]-PYY(23-36) (Ac-E[dP][Nle][4Pal][Cha][Cha]NK[Aib]TRQR[Cha]-NH2; SMILES CCCC[C@H](NC(=O)[C@H]1CCCN1C(=O)[C@H](CCC(=O)O)NC(C)=O)C(=O)N[C@@H](Cc1ccncc1)C(=O)N[C@@H](CC1CCCCC1)C(=O)N[C@@H](CC1CCCCC1)C(=O)N[C@@H](CC(N)=O)C(=O)N[C@@H](CCCCN)C(=O)NC(C)(C)C(=O)N[C@H](C(=O)N[C@@H](CCCNC(=N)N)C(=O)N[C@@H](CCC(N)=O)C(=O)N[C@@H](CCCNC(=N)N)C(=O)N[C@@H](CC1CCCCC1)C(N)=O)[C@@H](C)O) [compound No. 172]
8 | 6.9 | 7.5 | Ac-[Glu23, D-Pro24, Nle25, Pya(4)26, Cha27,36, Aib28,31, Lys30]-PYY(23-36) (Ac-E[dP][Nle][4Pal][Cha][Aib]NK[Aib]TRQR[Cha]-NH2; SMILES CCCC[C@H](NC(=O)[C@H]1CCCN1C(=O)[C@H](CCC(=O)O)NC(C)=O)C(=O)N[C@@H](Cc1ccncc1)C(=O)N[C@@H](CC1CCCCC1)C(=O)NC(C)(C)C(=O)N[C@@H](CC(N)=O)C(=O)N[C@@H](CCCCN)C(=O)NC(C)(C)C(=O)N[C@H](C(=O)N[C@@H](CCCNC(=N)N)C(=O)N[C@@H](CCC(N)=O)C(=O)N[C@@H](CCCNC(=N)N)C(=O)N[C@@H](CC1CCCCC1)C(N)=O)[C@@H](C)O) [compound No. 227]
9 | 1.3 | 4.6 | Ac-[Glu23, D-Pro24, Pya(4)26, Cha27,28,36, Aib31]-PYY(23-36) (Ac-E[dP]R[4Pal][Cha][Cha]NL[Aib]TRQR[Cha]-NH2; SMILES CC(=O)N[C@@H](CCC(=O)O)C(=O)N1CCC[C@@H]1C(=O)N[C@@H](CCCNC(=N)N)C(=O)N[C@@H](Cc1ccncc1)C(=O)N[C@@H](CC1CCCCC1)C(=O)N[C@@H](CC1CCCCC1)C(=O)N[C@@H](CC(N)=O)C(=O)N[C@@H](CC(C)C)C(=O)NC(C)(C)C(=O)N[C@H](C(=O)N[C@@H](CCCNC(=N)N)C(=O)N[C@@H](CCC(N)=O)C(=O)N[C@@H](CCCNC(=N)N)C(=O)N[C@@H](CC1CCCCC1)C(N)=O)[C@@H](C)O) [compound No. 141]
10 | 3.5 | 5.3 | Ac-[Glu23, D-Pro24, Pya(4)26, Cha27,36, Aib28,31, Lys30]-PYY(22-36) (Ac-AE[dP]R[4Pal][Cha][Aib]NK[Aib]TRQR[Cha]-NH2; SMILES CC(=O)N[C@@H](C)C(=O)N[C@@H](CCC(=O)O)C(=O)N1CCC[C@@H]1C(=O)N[C@@H](CCCNC(=N)N)C(=O)N[C@@H](Cc1ccncc1)C(=O)N[C@@H](CC1CCCCC1)C(=O)NC(C)(C)C(=O)N[C@@H](CC(N)=O)C(=O)N[C@@H](CCCCN)C(=O)NC(C)(C)C(=O)N[C@H](C(=O)N[C@@H](CCCNC(=N)N)C(=O)N[C@@H](CCC(N)=O)C(=O)N[C@@H](CCCNC(=N)N)C(=O)N[C@@H](CC1CCCCC1)C(N)=O)[C@@H](C)O) [compound No. 220]
11 | 1.9 | 2.7 | Ac-[Glu23, D-Pro24, Pya(4)26, Cha27,36, Aib28,31, Lys30]-PYY(23-36) (Ac-E[dP]R[4Pal][Cha][Aib]NK[Aib]TRQR[Cha]-NH2; SMILES CC(=O)N[C@@H](CCC(=O)O)C(=O)N1CCC[C@@H]1C(=O)N[C@@H](CCCNC(=N)N)C(=O)N[C@@H](Cc1ccncc1)C(=O)N[C@@H](CC1CCCCC1)C(=O)NC(C)(C)C(=O)N[C@@H](CC(N)=O)C(=O)N[C@@H](CCCCN)C(=O)NC(C)(C)C(=O)N[C@H](C(=O)N[C@@H](CCCNC(=N)N)C(=O)N[C@@H](CCC(N)=O)C(=O)N[C@@H](CCCNC(=N)N)C(=O)N[C@@H](CC1CCCCC1)C(N)=O)[C@@H](C)O) [compound No. 209]
12 | 3.9 | 7.4 | Ac-[Glu23, βAla24, Pya(4)26, Cha27,36, Aib28,31, Lys30]-PYY(23-36) (Ac-E[βAla]R[4Pal][Cha][Aib]NK[Aib]TRQR[Cha]-NH2; SMILES CC(=O)N[C@@H](CCC(=O)O)C(=O)NCCC(=O)N[C@@H](CCCNC(=N)N)C(=O)N[C@@H](Cc1ccncc1)C(=O)N[C@@H](CC1CCCCC1)C(=O)NC(C)(C)C(=O)N[C@@H](CC(N)=O)C(=O)N[C@@H](CCCCN)C(=O)NC(C)(C)C(=O)N[C@H](C(=O)N[C@@H](CCCNC(=N)N)C(=O)N[C@@H](CCC(N)=O)C(=O)N[C@@H](CCCNC(=N)N)C(=O)N[C@@H](CC1CCCCC1)C(N)=O)[C@@H](C)O) [compound No. 223]
13 | 1.6 | 2.5 | Ac-[Hse23, D-Pro24, Cha27,28,36, Aib31]-PYY(23-36) (Ac-[hSer][dP]RH[Cha][Cha]NL[Aib]TRQR[Cha]-NH2; SMILES CC(=O)N[C@@H](CCO)C(=O)N1CCC[C@@H]1C(=O)N[C@@H](CCCNC(=N)N)C(=O)N[C@@H](Cc1c[nH]cn1)C(=O)N[C@@H](CC1CCCCC1)C(=O)N[C@@H](CC1CCCCC1)C(=O)N[C@@H](CC(N)=O)C(=O)N[C@@H](CC(C)C)C(=O)NC(C)(C)C(=O)N[C@H](C(=O)N[C@@H](CCCNC(=N)N)C(=O)N[C@@H](CCC(N)=O)C(=O)N[C@@H](CCCNC(=N)N)C(=O)N[C@@H](CC1CCCCC1)C(N)=O)[C@@H](C)O) [compound No. 157]
